Results as given in doi:10.1101/2022.10.11.511834 (bioRxiv, 2022).

How the values were obtained:
ubiquitin = ubiquitin (UniProt P0CG48 1-76); test: crystal structure
M1-linked di-Ub = M1-linked di-Ub (UniProt P0CG48); test: ITC

binding result (ubiquitin) | Kd (M1-linked di-Ub) [µM] | Binder
binds | – | RNF216 (511-784, C688A, pSer719) (domain or fragment, phosphoserine at 719) QLIECRCCYGEFPFEELTQCADAHLFCKECLIRYAQEAVFGSGKLELSCMEGSCTCSFPTSELEKVLPQTILYKYYERKAEEEVAAAYADELVRCPSCSFPALLDSDVKRFSCPNPHCRKETCRKCQGLWKEHNGLTCEELAEKDDIKYRTSIEEKMTAARIRKCHKCGTGLIKSEGANRMSCRCGAQMCYLCRVSINGYDHFCQHPRSPGAPCQECSRCSLWTDPTEDDEKLIEEIQKEAEEEQKRKNGENTFKRIGPPLEKPVEKVQRVEAL
binds | – | HOIL-1 233-510 (C460A) (domain or fragment) DEEERARLAGEEEALRQYQQRKQQQQEGNYLQHVQLDQRSLVLNTEPAECPVCYSVLAPGEAVVLRECLHTFCRECLQGTIRNSQEAEVSCPFIDNTYSCSGKLLEREIKALLTPEDYQRFLDLGISIAENRSAFSYHCKTPDCKGWCFFEDDVNEFTCPVCFHVNCLLCKAIHEQMNCKEYQEDLALRAQNDVAARQTTEMLKVMLQQGEAMRCPQCQIVVQKKDGADWIRCTVCHTEICWVTKGPRWGPGGPGDTSGGCRCRVNGIPCHPSCQNCH
– | ~50 | HOIL-1 233-510 (helix-RBR), wild type (domain or fragment) DEEERARLAGEEEALRQYQQRKQQQQEGNYLQHVQLDQRSLVLNTEPAECPVCYSVLAPGEAVVLRECLHTFCRECLQGTIRNSQEAEVSCPFIDNTYSCSGKLLEREIKALLTPEDYQRFLDLGISIAENRSAFSYHCKTPDCKGWCFFEDDVNEFTCPVCFHVNCLLCKAIHEQMNCKEYQEDLALRAQNDVAARQTTEMLKVMLQQGEAMRCPQCQIVVQKKDGCDWIRCTVCHTEICWVTKGPRWGPGGPGDTSGGCRCRVNGIPCHPSCQNCH
